The source of these data is PMC2783222 (2010).

One test addresses T1, ADAM11 (Homo sapiens, UniProt O75078).
T1 chain: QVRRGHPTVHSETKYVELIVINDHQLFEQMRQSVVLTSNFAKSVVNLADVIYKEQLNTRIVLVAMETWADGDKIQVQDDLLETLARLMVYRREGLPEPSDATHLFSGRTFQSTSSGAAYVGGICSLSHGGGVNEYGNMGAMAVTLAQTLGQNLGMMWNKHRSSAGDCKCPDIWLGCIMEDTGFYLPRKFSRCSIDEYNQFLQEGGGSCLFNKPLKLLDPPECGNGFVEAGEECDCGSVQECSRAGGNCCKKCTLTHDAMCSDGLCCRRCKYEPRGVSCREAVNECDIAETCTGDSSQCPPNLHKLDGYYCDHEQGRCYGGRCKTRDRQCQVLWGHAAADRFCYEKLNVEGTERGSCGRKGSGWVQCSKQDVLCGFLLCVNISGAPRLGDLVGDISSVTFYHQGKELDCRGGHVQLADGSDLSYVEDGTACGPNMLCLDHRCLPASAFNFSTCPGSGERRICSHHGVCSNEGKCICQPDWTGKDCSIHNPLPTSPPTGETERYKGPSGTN
The experiment in a line: LGI1-AP fusion binding to transfected COS-7 cells.

In a further test the target is T2, ADAM22 (Homo sapiens, UniProt Q9P0K1).
T2 chain: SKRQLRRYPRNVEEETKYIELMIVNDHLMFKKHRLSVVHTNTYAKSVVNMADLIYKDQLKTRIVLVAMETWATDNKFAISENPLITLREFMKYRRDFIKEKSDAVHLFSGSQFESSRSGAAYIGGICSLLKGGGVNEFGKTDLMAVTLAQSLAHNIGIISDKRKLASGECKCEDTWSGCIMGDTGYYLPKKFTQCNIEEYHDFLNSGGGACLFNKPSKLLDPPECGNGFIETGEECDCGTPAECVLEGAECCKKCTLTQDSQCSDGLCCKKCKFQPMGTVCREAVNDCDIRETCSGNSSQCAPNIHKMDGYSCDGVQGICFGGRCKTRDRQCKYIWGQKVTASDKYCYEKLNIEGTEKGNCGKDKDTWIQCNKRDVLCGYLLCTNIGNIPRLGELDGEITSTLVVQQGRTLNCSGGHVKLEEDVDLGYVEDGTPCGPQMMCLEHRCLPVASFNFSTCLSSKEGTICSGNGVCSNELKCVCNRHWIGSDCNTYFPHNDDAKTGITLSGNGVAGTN
As to the kind of experiment: LGI1-AP fusion binding to transfected COS-7 cells.

The target of test [1] is T3, ADAM23 (Homo sapiens, UniProt O75077).
T3 chain: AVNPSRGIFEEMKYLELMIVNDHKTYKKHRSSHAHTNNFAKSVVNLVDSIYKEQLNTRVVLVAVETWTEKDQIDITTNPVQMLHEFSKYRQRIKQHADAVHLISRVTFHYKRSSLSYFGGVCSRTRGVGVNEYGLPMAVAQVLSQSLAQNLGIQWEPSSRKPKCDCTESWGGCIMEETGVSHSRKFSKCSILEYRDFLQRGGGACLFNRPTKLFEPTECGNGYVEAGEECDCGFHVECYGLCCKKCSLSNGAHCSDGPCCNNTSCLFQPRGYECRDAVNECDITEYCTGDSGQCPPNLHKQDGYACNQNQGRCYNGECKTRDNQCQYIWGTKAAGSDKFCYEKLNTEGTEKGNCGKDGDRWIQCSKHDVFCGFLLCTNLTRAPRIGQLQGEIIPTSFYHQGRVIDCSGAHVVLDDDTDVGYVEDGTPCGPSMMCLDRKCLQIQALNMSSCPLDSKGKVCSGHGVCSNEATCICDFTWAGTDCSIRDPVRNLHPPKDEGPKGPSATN
As to the kind of experiment: LGI1-AP fusion binding to transfected COS-7 cells.

In test [2] the target is T3, ADAM23. As to the kind of experiment: LGI1-AP fusion binding to transfected COS-7 cells, Scatchard.

B1: LGI1 (protein)
chain: KKPAKPKCPAVCTCTKDNALCENARSIPRTVPPDVISLSFVRSGFTEISEGSFLFTPSLQLLLFTSNSFDVISDDAFIGLPHLEYLFIENNNIKSISRHTFRGLKSLIHLSLANNNLQTLPKDIFKGLDSLTNVDLRGNSFNCDCKLKWLVEWLGHTNATVEDIYCEGPPEYKKRKINSLSSKDFDCIITEFAKSQDLPYQSLSIDTFSYLNDEYVVIAQPFTGKCIFLEWDHVEKTFRNYDNITGTSTVVCKPIVIETQLYVIVAQLFGGSHIYKRDSFANKFIKIQDIEILKIRKPNDIETFKIENNWYFVVADSSKAGFTTIYKWNGNGFYSHQSLHAWYRDTDVEYLEIVRTPQTLRTPHLILSSSSQRPVIYQWNKATQLFTNQTDIPNMEDVYAVKHFSVKGDVYICLTRFIGDSKVMKWGGSSFQDIQRMPSRGSMVFQPLQINNYQYAILGSDYSFTQVYNWDAEKAKFVKFQELNVQAPRSFTHVSINKRNFLFASSFKGNTQIYKHVIVDLSA
As to B1, the Kd with ADAM11 was found to be 15 nM; in the test with ADAM22, 15 nM; with ADAM23 [1], 15 nM; in the test with ADAM23 [2], 10 nM.

In general, Kd refers to the concentration at which binding is half-saturated.
